Test results as given in the supplement of paper PMC9170038.

Tested on: K4 kissing-loop RNA reporter
Assay: apparent KD of K4 kissing-loop reporter; higher = weaker reporter binding
Conditions: Eterna round: R107
Method: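 RNA-MaP round R107: designed RNA switches with theophylline, tryptophan, arginine or FMN aptamers are transcribed on-chip within common flanks. They are titrated with a labelled K4 kissing-loop RNA reporter in RNA-MaP buffer (100 mM Tris pH 7.5, 80 mM KCl, 4 mM MgCl2), without ligand or with the indicated ligand. Median apparent KD per design.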

[1] = input ligand: theophylline 20 uM
[2] = input ligand: tryptophan 2.4 mM
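Also: bound reporter read as fluorescence of individual clusters on recovered sequencing chips by microscopy, with normalized cluster intensities fitted with a binding model.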

Sequence	apparent KD of K4 kissing-loop reporter (input ligand: FMN 200 uM)	apparent KD of K4 kissing-loop reporter (input ligand: arginine 13.2 mM)	apparent KD of K4 kissing-loop reporter (input ligand: none)	apparent KD of K4 kissing-loop reporter [1]	apparent KD of K4 kissing-loop reporter [2]
AGUGGACGUGUUCGGAGUGAUGUUCCGGAUACCAGACACGAAAGUGUCCCUUGGCAGCCGGAGUGAUGUUCCGGCGUUCACUAAA [Omei KL Theo A Exc B v2]	646 nM	311 nM	538 nM	533 nM	439 nM
UUUAAACAUAGUGAUGUUAUGUAACAAUGACGAGGACCGGUACGGCCGCCACUCGAGAGAGAUAAUGAUAAAAUAAAUAAUUUUC [#09 K4 Tryptophan A Same State]	109 nM	111 nM	118 nM	115 nM	92.4 nM
AAAAUAAAUCAGUGAUGUUGGUAUCUGGAUACCAGCGAUAAUAAUCGCCCUUGGCAGCCAUGGACGUACAAAAUAAGUACGUCCU [MatMod 18 - Jieux - Same State - Theophylline A]	285 nM	154 nM	226 nM	337 nM	200 nM
GGUAGCAUCGCGGCCGCCACUAAUCGCUAAGGCUCAGGACCCUAAUAGCGAGUGAUGUUCGCCCUUAGGACCGGGCGAUGCUACC	114 nM	93.3 nM	101 nM	87.5 nM	119 nM
UUCCUCAUGGUAGUGAUGUUGCCGCCCGAUACCAGUCGACGUAUUGACCCUUGGCAGCGGAUCAAGUCCGAUUAAUUUUUUGGUC [theeternabot_sameState_KL_Theo_A_5]	216 nM	190 nM	217 nM	320 nM	196 nM
UGUGUUGUUUUGAUGUUUGUUGUAAAAUGGCAGGAUAUCGUAGAGGCGAGAAGGGCUUUUAUGCGUUAUGAGUGAUGUUUGUAGG [zvvczmullin]	338 nM	283 nM	352 nM	340 nM	263 nM
ACGAUCAUGUCGGCCGCCACUGAGAGUAGUGAUGUUACUCUUUUCCUUUAGUUAUUAUAUUUUAUCAGGACCGGGACAUGUUCGU [JR_ExcTryptoB_Sub022]	88.3 nM	66.7 nM	72.3 nM	69.6 nM	77.9 nM
CGUUUAUAGCAGGAUACCAGUACGGAUAAGGUACGUUAAUAGUAGAGUGAUGUUCUAAAGUACCCUUGGCAGCUUAGAGUGAGUG [#20 K4 Theophylline B Exclusion]	90.3 nM	147 nM	142 nM	126 nM	92.2 nM
GGUUUUAACCGCAGUGAUGUUGCGUUGAAACGAGGACCGGUACGGCCGCCACUCGAAAAGAAGCGGCCAAAUUAAAAUCGUAAAG [Exclusion Tryptophan A GF 23]	129 nM	162 nM	144 nM	164 nM	114 nM
CCUAUCUCAUACGAUACCAGUGAAAUAAUAUUUAUAAGCAGUGAUGUUGCAUUCCAAGAACACCCUUGGCAGCGUAUGGGAUAGG [Ex Theophylline B K4 19]	168 nM	187 nM	178 nM	189 nM	143 nM
UUUUAUUAGUAGUGAUGUUACUAAACUGAAGGAGCGAGAUUUAACUCAGGUAGGUCGCAGAAAAUCAAUUAAUUUAUAAAUUAAA [JR_SSArginiA_Sub011]	97.7 nM	87.8 nM	99.8 nM	87.2 nM	94.6 nM
UGUCAUUGGUCGGCCGCCACUUCAAGGUCAAAGACCAGAGUGAUGUUCUUGCACAAAGUGCUUAGAAGGACCGGGACCGAUGACU [TrypBS 13 #SwitchBubble #K4Middle]	738 nM	467 nM	625 nM	413 nM	622 nM
GGGCAAGUGAGUGAUGUUCGAUGAUGCUUAAAGGAUAUGUAGGAAUACAGAAGGUUAUAUUCCCUGACAUUAGAUCUUUACAGGG [theeternabot_exclusion_KL_FMN_A_44]	117 nM	134 nM	105 nM	151 nM	90.4 nM
ACAUUAGCGAGUGAUGUUCGCUAAGACGAAGGAGCGCUCGCGAGAGCAGGUAGGUCGCGUCUAGUGUCACUGUACUAAAUAGUGA [Arg A SS t12]	159 nM	164 nM	180 nM	183 nM	169 nM
CGUUCCUCUGUCGAUACCAGCUUCAGUUGGCGGCCAGUGAUGUUGGUAUUGCCGAUGCCAAGCCCUUGGCAGCGAUAUGAGACCC [Aredi]	572 nM	403 nM	597 nM	265 nM	439 nM
AGGUACUACGGAAGGAGCGCACCAGUGAUGUUGGUGUGUGACCGUGACAUGGCAGUCAAGGUGCAGGUAGGUCGCCGUGGCCUUU [Anatartibe]	143 nM	113 nM	146 nM	122 nM	115 nM

Sequence	apparent KD of K4 kissing-loop reporter (input ligand: FMN 200 uM)	apparent KD of K4 kissing-loop reporter (input ligand: arginine 13.2 mM)	apparent KD of K4 kissing-loop reporter (input ligand: none)	apparent KD of K4 kissing-loop reporter [1]	apparent KD of K4 kissing-loop reporter [2]
AUGCUGUCGGCGUUAAAGUAGUAAUGUGAUACCAGAAAUGCUGUGUUCCCUUGGCAGCACAUUCUUACAGACAGUGAUGUUGUCU [theeternabot_exclusion_KL_Theo_A_8]	414 nM	315 nM	391 nM	390 nM	336 nM
AAAACUAUCAGAAGGAGCGUGGAAUAUUCAUCUGUAUCUAAUACGAGUGAUGUUCGUAAUUCACAGGUAGGUCGCUGAUCAAUAA [whbob_Ex_Arginine_B_2th155]	255 nM	226 nM	241 nM	250 nM	241 nM
AAAAUAAACCAGUGAUGUUGGUGUCCAGAUACCAGCGACGAAAGUCGCCCUUGGCAGCUGUGGACGUACAAAAUAAGUACGUCCU	332 nM	229 nM	356 nM	209 nM	290 nM
UAGCGGUAGAGGCCACCGCUAUUCUGAGAAGGAGCGCAGAUGACUGCAGGUAGGUCGCUUAGAGCUUGCAGUGAUGUUGCAAGUU [Tebete]	171 nM	175 nM	179 nM	145 nM	131 nM
GGUAGCAUGGCGGCCGCCACUAUCAGGAGUGAUGUUCCAACGCAGAGCUUCAGCUAGUGUGUAAAUAGGACCGGGCCAUGCUACC	414 nM	69.8 nM	512 nM	177 nM	866 nM
GUCCCAGUGAUGUUGGUAGGCGGGCGGGAUACCAGCGAAGACUCACGCCCUUGGCAGCCCACAUAUCCCGCGUAGGGAUUAGCCC [Same State - Theophylline A (Freestyle 22)]	652 nM	437 nM	656 nM	638 nM	457 nM
UAAGAGGACCACUGCAAAAGUCCUCGAAUACGAGGACCGGUACGGCCGCCACUCGAUAAUUUGCAGUGAUGUUGCAAGUAAGAAU [BrourdMod 4 - Jieux - Same State Tryptophan A]	120 nM	158 nM	130 nM	201 nM	71.2 nM
AGUGAUGUGGGAAGGAGCGCUACAUCACUUCAGUGAUGUUGAAGUGAUGAAUUAGUGAUGUAGCAGGUAGGUCGCCUAGAUGUUA [KL-XARG-B12]	76.3 nM	38.5 nM	58.3 nM	60.8 nM	51.3 nM
UGUUUUUACUGAAGGAGCGGCAAUUGAUACGUAGAUAUAGUGAUGUUAUAUAAGAUAGAGAGCCAGGUAGGUCGCAGAUUUUUUC [ExArgB.Y]	179 nM	201 nM	164 nM	172 nM	136 nM
UCCAGGAAUCAUGUCGUAGUGAUGUUAUGACGAGGACCGGUACGGCCGCCACUCGUCGUGGCCGGUUCUGAGGGCUAAUCUCUCA [theeternabot_exclusion_KL_Trp_A_34]	247 nM	214 nM	273 nM	227 nM	632 nM
AAGGUCACUACUACAGUGAUGUUGUGGGAGCAGGAUAUGCAGAAAUGCAGAAGGGCUCGCUCCAGGUGACCGAAUGAAACAUUCA [whbob_SS_FMNA__2th174]	1500 nM	882 nM	1780 nM	1140 nM	1140 nM
UUACAGCCCAGUGAUGUUGGGUAGCGGCGGCGAGGACCGGUACGGCCGCCACUCGGCGCACAGGCGGAGUGAUGUUUUGCUUAAA [Same State Tryptophan A GF 11]	718 nM	590 nM	894 nM	927 nM	476 nM
UAAUGUGGCACAGGAUAUACUGAUUGGAGUGAUGUUCCAAACAUGGACGUGAGACUUUUACAAGAAGUAGAAGGGUGUUAGAUAU [Exclusion FMN B GF 20]	241 nM	298 nM	304 nM	448 nM	306 nM
UUGUUUUACUGAAGGAGCGGCAAUUGAUACGUAGAUAUAGUGAUGUUAUAUAAGAUAGAGAGCCAGGUAGGUCGCAGAUGUGUUU [ExArgB.T]	196 nM	205 nM	180 nM	204 nM	149 nM
AUGUCUUAUAAACUCAUGGUUUCGACAGAUACCAGCUUCGAGAGGAGCCCUUGGCAGCUGCAUGAGUGAUGUUCAUGUACGAAGA [KL-XTheoA6]	370 nM	336 nM	516 nM	315 nM	301 nM
AUGCCUAUGACGGCCGCCACUGAGAGUCAGUGAUGUUGACUCGAUACAGCUGAUUAGCAGCUAAUCAGGACCGGGUCAUACACAU [Tryp B SS t3]	243 nM	158 nM	244 nM	245 nM	123 nM
